In the supplement of paper PMC11316812:
± gives the standard deviation of the averaged measurements.

Key:
MCF7 = assay: percentage of EdU-negative (G0-arrested) nuclei per well, 72 h; higher = more G0 arrest; settings: reference: sequence is the full UniProt precursor, the tested protein was the secreted form or ectodomain
hTERT-HMEC = assay: as above; settings: reference: sequence is the full UniProt precursor, the tested protein was the secreted form or ectodomain
[1] = protein concentration 0.02102 µM
[2] = protein concentration 0.2102 µM
[3] = protein concentration 0.00742857 µM
[4] = protein concentration 0.0225 µM
[5] = protein concentration 0.0742857 µM
[6] = protein concentration 0.012845 µM
[7] = protein concentration 0.12845 µM
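Further: secreted proteins added to cultured cells, EdU pulse at the end, nuclei found by Hoechst imaging, EdU status from nuclear versus surrounding ring intensity ratio, PBS as neutral control.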

MARPGQRWLGKWLVAMVVWALCRLATPLAKNLEPVSWSSLNPKFLSGKGLVIYPKIGDKLDIICPRAEAGRPYEYYKLYLVRPEQAAACSTVLDPNVLVTCNRPEQEIRFTIKFQEFSPNYMGLEFKKHHDYYITSTSNGSLEGLENREGGVCRTRTMKIIMKVGQDPNAVTPEQLTTSRPSKEADNTVKMATQAPGSRGSLGDSDGKHETVNQEEKSGPGASGGSSGDPDGFFNSKVALFAAVGAGCVIFLLIIIFLTVLLLKLRKRHRKHTQQRAAALSLSTLASPKGGSGTAGTEPSDIIIPLRTTENNYCPHYEKVSGDYGHPVYIVQEMPPQSPANIYYKV
percentage of EdU-negative (MCF7; [1]): 26.6 ± 1.7%
percentage of EdU-negative (MCF7; [2]): 27.1 ± 2.8%
percentage of EdU-negative (hTERT-HMEC; [1]): 5.93 ± 0.36%
percentage of EdU-negative (hTERT-HMEC; [2]): 5.52 ± 0.52%

MRSLGALLLLLSACLAVSAGPVPTPPDNIQVQENFNISRIYGKWYNLAIGSTCPWLKKIMDRMTVSTLVLGEGATEAEISMTSTRWRKGVCEETSGAYEKTDTDGKFLYHKSKWNITMESYVVHTNYDEYAIFLTKKFSRHHGPTITAKLYGRAPQLRETLLQDFRVVAQGVGIPEDSIFTMADRGECVPGEQEPEPILIPRVRRAVLPQEEEGSGGGQLVTEVTKKEDSCQLGYSAGPCMGMTSRYFYNGTSMACETFQYGGCMGNGNNFVTEKECLQTCRTVAACNLPIVRGPCRAFIQLWAFDAVKGKCVLFPYGGCQGNGNKFYSEKECREYCGVPGDGDEELLRFSN
percentage of EdU-negative (MCF7; [3]): 27.22 ± 0.12%
percentage of EdU-negative (MCF7; [4]): 23.9 ± 0.98%
percentage of EdU-negative (MCF7; [5]): 26 ± 2.5%
percentage of EdU-negative (MCF7; protein concentration 0.225 µM): 25.2 ± 1.6%
percentage of EdU-negative (hTERT-HMEC; [3]): 4.92 ± 0.19%
percentage of EdU-negative (hTERT-HMEC; [4]): 5.59 ± 1.2%
percentage of EdU-negative (hTERT-HMEC; [5]): 7.02 ± 1.1%
percentage of EdU-negative (hTERT-HMEC; protein concentration 0.225 µM): 5.52 ± 0.57%

MKRSVAVWLLVGLSLGVPQFGKGDICDPNPCENGGICLPGLADGSFSCECPDGFTDPNCSSVVEVASDEEEPTSAGPCTPNPCHNGGTCEISEAYRGDTFIGYVCKCPRGFNGIHCQHNINECEVEPCKNGGICTDLVANYSCECPGEFMGRNCQYKCSGPLGIEGGIISNQQITASSTHRALFGLQKWYPYYARLNKKGLINAWTAAENDRWPWIQINLQRKMRVTGVITQGAKRIGSPEYIKSYKIAYSNDGKTWAMYKVKGTNEDMVFRGNIDNNTPYANSFTPPIKAQYVRLYPQVCRRHCTLRMELLGCELSGCSEPLGMKSGHIQDYQITASSIFRTLNMDMFTWEPRKARLDKQGKVNAWTSGHNDQSQWLQVDLLVPTKVTGIITQGAKDFGHVQFVGSYKLAYSNDGEHWTVYQDEKQRKDKVFQGNFDNDTHRKNVIDPPIYARHIRILPWSWYGRITLRSELLGCTEEE
percentage of EdU-negative (MCF7; [6]): 25.7 ± 1.6%
percentage of EdU-negative (MCF7; [7]): 30.6 ± 1.9%
percentage of EdU-negative (hTERT-HMEC; [6]): 4.79 ± 0.32%
percentage of EdU-negative (hTERT-HMEC; [7]): 47.8 ± 1.9%

MALPSLLLLVAALAGGVRPPGARNLTLAVVLPEHNLSYAWAWPRVGPAVALAVEALGRALPVDLRFVSSELEGACSEYLAPLSAVDLKLYHDPDLLLGPGCVYPAASVARFASHWRLPLLTAGAVASGFSAKNDHYRTLVRTGPSAPKLGEFVVTLHGHFNWTARAALLYLDARTDDRPHYFTIEGVFEALQGSNLSVQHQVYAREPGGPEQATHFIRANGRIVYICGPLEMLHEILLQAQRENLTNGDYVFFYLDVFGESLRAGPTRATGRPWQDNRTREQAQALREAFQTVLVITYREPPNPEYQEFQNRLLIRAREDFGVELGPSLMNLIAGCFYDGILLYAEVLNETIQEGGTREDGLRIVEKMQGRRYHGVTGLVVMDKNNDRETDFVLWAMGDLDSGDFQPAAHYSGAEKQIWWTGRPIPWVKGAPPSDNPPCAFDLDDPSCDKTPLSTLAIVALGTGITFIMFGVSSFLIFRKLMLEKELASMLWRIRWEELQFGNSERYHKGAGSRLTLSLRGSSYGSLMTAHGKYQIFANTGHFKGNVVAIKHVNKKRIELTRQVLFELKHMRDVQFNHLTRFIGACIDPPNICIVTEYCPRGSLQDILENDSINLDWMFRYSLINDLVKGMAFLHNSIISSHGSLKSSNCVVDSRFVLKITDYGLASFRSTAEPDDSHALYAKKLWTAPELLSGNPLPTTGMQKADVYSFGIILQEIALRSGPFYLEGLDLSPKEIVQKVRNGQRPYFRPSIDRTQLNEELVLLMERCWAQDPAERPDFGQIKGFIRRFNKEGGTSILDNLLLRMEQYANNLEKLVEERTQAYLEEKRKAEALLYQILPHSVAEQLKRGETVQAEAFDSVTIYFSDIVGFTALSAESTPMQVVTLLNDLYTCFDAIIDNFDVYKVETIGDAYMVVSGLPGRNGQRHAPEIARMALALLDAVSSFRIRHRPHDQLRLRIGVHTGPVCAGVVGLKMPRYCLFGDTVNTASRMESNGQALKIHVSSTTKDALDELGCFQLELRGDVEMKGKGKMRTYWLLGERKGPPGLL
percentage of EdU-negative (MCF7; [4]): 28 ± 1%
percentage of EdU-negative (MCF7; protein concentration 0.225 µM): 28.8 ± 1.5%
percentage of EdU-negative (hTERT-HMEC; [4]): 4.62 ± 0.46%
percentage of EdU-negative (hTERT-HMEC; protein concentration 0.225 µM): 6.68 ± 1.3%
